Tests used:
[1] = target: Fluorescein-labeled FimDN (E. coli); assay: stopped-flow fluorescence kinetics; fluorescein-labeled FimDN (0.4 μM) mixed with different concentrations of FimCI; 23 °C, 20 mM Tris-HCl pH 8.0; traces fitted globally to second-order binding and first-order dissociation
[2] = target: T1, FimA-FimAt (the two subunits of the ternary FimCAA complex) (E. coli) (UniProt P04128); assay: chaperone exchange kinetics followed by analytical cation exchange chromatography; 4 μM complex incubated with a 9-fold molar excess (36 μM) of the differently tagged FimC (untagged FimC against FimCHis complexes, FimCHis against FimCA and FimCAA); 20 mM MES-NaOH pH 6.0, 37 °C; single-exponential fit
T1 sequence (P04128 24-182, looked up): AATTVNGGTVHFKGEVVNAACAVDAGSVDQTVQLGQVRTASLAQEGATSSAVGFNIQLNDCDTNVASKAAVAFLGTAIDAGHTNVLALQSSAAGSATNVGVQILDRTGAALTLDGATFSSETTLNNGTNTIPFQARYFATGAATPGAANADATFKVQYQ

Sequence of Fluorescein-labeled FimDN (E. coli) (P30130 46-170 limits assumed): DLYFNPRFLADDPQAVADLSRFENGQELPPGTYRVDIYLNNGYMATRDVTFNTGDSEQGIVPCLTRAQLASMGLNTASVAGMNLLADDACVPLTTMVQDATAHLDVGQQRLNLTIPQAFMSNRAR
Sequence of FimC-FimI complex (FimCI) (P31697 37-241): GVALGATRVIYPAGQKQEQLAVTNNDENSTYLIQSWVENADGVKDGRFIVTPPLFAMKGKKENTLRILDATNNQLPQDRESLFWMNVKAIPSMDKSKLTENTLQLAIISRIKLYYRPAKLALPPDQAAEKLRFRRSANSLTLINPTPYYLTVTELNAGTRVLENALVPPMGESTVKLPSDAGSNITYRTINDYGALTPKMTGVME
Sequence of FimC-FimI complex (FimCI) (P39264 20-179): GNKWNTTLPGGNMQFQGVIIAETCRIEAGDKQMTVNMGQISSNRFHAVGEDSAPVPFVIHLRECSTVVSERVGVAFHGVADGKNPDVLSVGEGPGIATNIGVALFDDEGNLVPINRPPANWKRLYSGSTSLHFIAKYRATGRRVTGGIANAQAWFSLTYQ
Sequence of FimC (P31697 37-241): as the sequence (P31697 37-241) above

| koff [1] [s⁻¹] | kon [1] [M⁻¹ s⁻¹] | dissociation half-life [2] [min] | Substance |
| --- | --- | --- | --- |
| 94 | 1.45e+08 |  | FimC-FimI complex (FimCI) (from UniProt P31697 37-241; P39264 20-179) |
|  |  | 17.7 | FimC (from UniProt P31697 37-241) (natural protein) |
